We go through one molecule from US20090233993A1, “COMPOSITIONS AND METHODS FOR INHIBITING GSK3 ACTIVITY AND USES THEREOF” (Burnham Institute for Medical Research, priority 2008, published 2009).

The subject of series [1] is FG01 transgenic mouse brain. In words: brain-specific FG01 transgenic mice, brain analysis. The series is classed as in vivo. The source says:
Brain-specific FG01 transgenic mice were generated using a FG01 expression cassette. FG01 has an N-terminal Myc tag and is driven by the human Thy-1 promoter for neuron-specific expression. A SV40 polyA fragment is linked at the 3′ end for enhancing expression. Genotyping P5 primer was complementary to hThy1 sequence. Genotyping P3 primer was complementary to SV40/Poly A sequence. Reverse transcription primer RT-P5 was complementary to sequence on the 5′ side of the FG01 sequence. Hemizygous FG01 transgenic mice were crossed with homozygous triple transgenic (3×Tg) AD mice harboring mutations in human APP and tau genes on a presenilin 1 (PS1) mutant background (Oddo et al., 2003). Procedures involving animals and their care conformed to institutional guidelines (Animal Resources Department at Burnham Institute for Medical Research).
N-terminally Myc-tagged FG01 cDNA was cloned into pHZ04 construct between the human Thy-1 promoter and the SV40 polyA regions. Purified, linearized minigenes containing these sequences were microinjected into prenuclear embryos from superovulated C57B16 females. Two primers (Genotyping-P5: 5′-[…]-3′; SEQ ID NO:25), and Genotyping-P3: 5′-[…]-3′; SEQ ID NO:26) located within the human Thy-1 promoter and the SV40 regions, respectively, were used for genotyping. Brain tissues from confirmed transgenic mice and littermate controls were used for RNA extraction, reverse transcription and PCR with RT-P5 primer (5′-AGAATTTGGCTGTTTGG-3′; SEQ ID NO:27) located within the FG01 cDNA region paired with the Genotyping-P3 primer to verify Myc-FG01 expression. Alternatively, brain lysates were immunoprecipitated and analyzed by Western blot with the Myc antibody to verify Myc-FG01 expression. Procedures involving animals and their care conformed to institutional guidelines (Animal Resources Department at Burnham Institute for Medical Research).
To validate FG01 function in vivo, an FG01 transgenic mouse model specifically overexpressing Myc-tagged FG01 in the brain was generated. A transgenic expression cassette driven by the human Thy-1 promoter was microinjected into C57B16 mice and primers specifically amplifying exogenous Myc-FG01 were used to genotype transgenic mice. Genomic DNA extracted from mouse tail samples was genotyped by PCR using Genotyping-P5 and Genotyping-P3 primers located in the human Thy1 and SV40 polyA regions, respectively. […] Total RNA was extracted from the brain of an FG01 transgenic mouse (1) and of a littermate control (0), followed by RT-PCR with the RT-P5 primer located within the FG01-coding region and the Genotyping-P3 primer for detecting Myc-FG01 mRNA. Immunoprecipitation/Western blot confirmed that exogenous Myc-tagged FG01 protein was expressed in brain tissues of transgenic mice. Brain samples from FG01 transgenic (Tg) mice and littermate controls (Non-Tg) were analyzed for levels of phosphorylated/total CREB, phosphorylated/total GSK-3, and various tau forms by direct Western blot. Myc-FG01 was detected by immunoprecipitation-Western blot using the Myc antibody. Two mouse lines with similar exogenous FG01 expression levels were generated and the results obtained from the two lines (including their crossing with 3×Tg mice as described below) were similar. […] Brain lysates from FG01-Tg and Non-Tg mice were analyzed for GSK-3β activity. Results were normalized to those of Non-Tg samples.

For another series, the system named is adenylate cyclases. Put plainly: co-immunoprecipitation of FG01 with adenylate cyclases. The conditions noted are these: N2a cells overexpressing FG01. The series is classed as binding, mouse. As for the experimental part: (§1) After 48-72 hrs, cells were lysed and cell lysates were subjected to immunoprecipitation with mouse IgG, rabbit IgG, myc antibody and adenylyl cyclase (AC) antibody (Santa Cruz Biotechnology, catalog number sc-1701), and then immunoblotted with antibodies against adenylyl cyclase (AC) and myc, respectively.
Cells transfected with FG01 were lysed in either CHAPSO buffer (1% CHAPSO, 25 mM HEPES, pH7.4, 150 mM NaCl, and 2 mM EDTA supplemented with protease inhibitors) or in NP40 buffer (1% NP40 in phosphate buffered saline, supplemented with protease inhibitors). Lysates were immunoprecipitated using mouse IgG, rabbit IgG, and antibodies against Myc or adenylate cyclases and Trueblot™ IP beads (eBioscience), followed by Western blot with antibodies against Myc or adenylate cyclases.

The next series relates to PKC. Put plainly: PKC activity in N2a cell lysates (32P peptide substrate). The series is classed as cell-based, mouse. The conditions noted are these: FG01 overexpression in N2a cells. How it is done: N2a cells were transfected with pcDNA or FG01. After lysis, cell lysates containing […] of total proteins were incubated with synthesized PKC specific peptide substrate and ^32P-ATP. The ^32P labeled peptides were captured and the radioactivities were quantified by scintillation. The activities of PKC were represented by the normalized radioactivities of the labeled peptide substrates. n=4.

The next series deals with GSK-3β. In words: GSK-3β in vitro kinase activity after immunoprecipitation from N2aSwe cells. Type of series: cell-based, mouse. Particulars: in vitro kinase assay, FG01-overexpressing N2aSwe cells vs control. The source says:
The levels of the recombinant Notch (NotchΔE with Myc-tag) and the γ-secretase cleaved Notch fragment (NICD) were quantified by Western blotting using myc antibody and an antibody specific to processed Notch followed by densitometry. […] The results represent at least four independent experiments.
(§2) Commercial kits were used to assay in vitro activities of GSK-3β (Sigma) and PKA (Upstate). For GSK-3α activity, a commercial GSK-3β activity assay kit was used but the procedure to immunoprecititate GSK-3β was replaced with immunoprecipitation of GSK-3α using an anti-GSK-3α antibody (Cell Signaling). cAMP levels were assayed using a commercial kit (Biovision).

For another series, the system named is cAMP levels. Put plainly: cAMP assay in mouse N2a cells. Type of series: cell-based. The conditions noted are these: FG01 overexpression.
Source text: as §1, §2

Several values for one entry are separate records, joined by “and”; a condition that tells them apart may be missing. Equal entries are not always repeated.

B1: FG01: 141 amino acid transmembrane protein encoded by mouse retrogene fg01 (SEQ ID NO:2); expressed from transfected vector or transgene (protein)
chain: MQSQQRNIGYFNHLKADSRNITYSMTFSTKSSNQNFIIFLNEVQAAIIGHERCDLLPVLNELHPDALPDGRIWLFGLNPYFFQHNSLCMRGTPKRIGLQGCAQVGFLVLFVMPLLIPSVTAELPGSSETTTLAHLAGATGP
modifications: Myc and His6 tags; homo sapien
notes: expressed from transfected vector or transgene
Consider B1, for which the “levels of phosphorylated (inactive) GSK-3α/β in brain” value in series [1] (FG01 transgenic vs littermate non-Tg mice) is “increased”. Besides, in series [1] (FG01 transgenic vs non-Tg mice), the “CREB phosphorylation in brain” value is listed as “Increased” and the “phosphorylation of endogenous mouse brain tau” value is reported as “decreased”. Further, in series [1] (FG01 transgenic vs non-Tg mice, brain lysates), the “GSK-3β activity in brain” value is given as “reduced”. For the same molecule, in series [1] (observation of FG01 transgenic mice), the behavioral phenotypes entry is given as “no obvious aberrant behavioral phenotypes”. The “interaction with adenylate cyclases” value in the series with adenylate cyclases is on record as “interacts”. Moreover, the PKC activity result in the series with PKC is “increased”. Also, the “decrease in GSK-3β activity” value in the series on GSK-3β is ~30% and 40%. For the same molecule, the “increase of cAMP levels” value in the series with cAMP levels is 38%.
